In patent US20100322920 (published 2010):
“And” between values parts separate entries of the source, which are not always exact repeats. Identical values can stand only once.

Biological target: T1, human CD30 (TNFRSF8), recombinant (human, UniProt P28908)
T1 chain: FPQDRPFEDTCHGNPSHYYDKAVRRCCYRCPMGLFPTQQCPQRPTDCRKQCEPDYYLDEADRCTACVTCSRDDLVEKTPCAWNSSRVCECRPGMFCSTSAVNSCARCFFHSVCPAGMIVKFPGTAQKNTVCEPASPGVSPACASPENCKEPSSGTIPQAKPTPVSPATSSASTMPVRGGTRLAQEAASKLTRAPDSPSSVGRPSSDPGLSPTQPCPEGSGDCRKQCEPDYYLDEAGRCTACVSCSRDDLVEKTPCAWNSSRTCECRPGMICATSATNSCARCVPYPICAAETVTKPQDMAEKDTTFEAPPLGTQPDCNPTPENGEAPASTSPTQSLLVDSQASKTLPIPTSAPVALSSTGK
Assay: SPR

B1: HuMab 5F11 (antibody, V domains shown)
VH: QVQLQQWGAGLLKPSETLSLTCAVYGGSFSAYYWSWIRQPPGKGLEWIGDINHGGGTNYNPSLKSRVTISVDTSKNQFSLKLNSVTAADTAVYYCASLTAYWGQGSLVTVSS
VL: DIQMTQSPTSLSASVGDRVTITCRASQGISSWLTWYQQKPEKAPKSLIYAASSLQSGVPSRFSGSGSGTDFTLTISSLQPEDFATYYCQQYDSYPITFGQGTRLEIK
For B1, the Kd was 1.12 nM and 1.14 nM and 1.23 nM and 1.36 nM.
